The values that follow come from publication PMC7515726.

Assay in all cases: affinity purification with mass spectrometry
Assay [1] addresses Nuc1, acidic patch mutant nucleosome (hH2A.Dx10), biotinylated 185 bp 601 DNA (human) (UniProt P62807).
In assay [2] the target is Nuc2, disk patch 2 mutant nucleosome (hH2A.Dx2, hH2B.Cx8), biotinylated 185 bp 601 DNA (human) (UniProt Q71DI3).
The target of assay [3] is Nuc3, disk patch 3 mutant nucleosome (hH3.2x10, hH4x24, hH2B.Cx9), biotinylated 185 bp 601 DNA (human) (UniProt P20671).

B1: tyrosine-protein kinase BAZ1B (enzyme)
chain: MAPLLGRKPFPLVKPLPGEEPLFTIPHTQEAFRTREEYEARLERYSERIWTCKSTGSSQLTHKEAWEEEQEVAELLKEEFPNWYEKLVLEMVHHNTASLEKLVDSAWLEIMTKYAVGEECDFEVGKEKMLKVKIVKIHPLEKVDEEAVEKKSDGACDSPSSDKENSSQMAQDLQKKETVVKEDEGRRESINDRARRSPRKLPTSLKKGERKWAPPKFLPHKYDVKLQNEDKIISNVPADSLIRTERPPNKEILRYFIRHNALRAGTGENAPWVVEDELVKKYSLPSKFSDFLLDPYKYMTLNPSTKRRNTGSPDRKPSKKPKRDSSSLSSPLNPKLWCHVHLEKSLNGPPLKVKNSKNSKSPEEHLEGVMKIMSPNNNKLHSFHIPKKGPAAKKPGKHSDKPLKAKGRGKGILNGQKSTGNSKSPSKCVKTPKTKMKQMTLLDMAKGTQKMTRTPRSSGGVPRSSGKPHKHLPPAALHLIAYYKENKDKEDKKSALSCVISKTARLLSNEDRARLPEELRALVQKRYELLEHKKRWASMSEEQRKEYLKKKRQELKERLREKAKERREREMLERLEKQKRFEDQELGGRNLPAFRLVDTPEGLPNTLFGDVALVVEFLSCYSGLLLPDAQYPITAVSLMEALSADKGGFLYLNRVLVILLQTLLQDEIAEDYGELGMKLSEIPLTLHSVSELVRLCLRRCDVQEDSEGSETDDNKDSTPFEDNEVQDEFLEKLETSEFFELTSEEKLRILTALCHRILMTYSVQDHMETRQQVSAELWKERLAVLKEENDKKRAEKQKRKEMEARNKENGKEENVLGKVDRKKEIVKIEQQVEVEADDMISAVKSRRLLSMQAKRKREIQERETKVRLEREAEEERMRKHKAAAEKAFQEGIAKAKLVLRRTPIGTDRNHNRYWLFSNEVPGLFIEKGWVHNSIDYRFKHHRKDHSNLPDDDYCPRSKKANLGKNASVNAHHGPALEAVETTVPKQGQNLWFLCDSQKELDELLSCLHPQGIRESQLKERLEKRYQEITHSIYLARKPNLGLKSCDGNQELLNFLRSDLIEVATRLQKGGLGYMEGTSEFEARVISLEKLKDFGECVIALQASVIKKFLQGFMAPKQKKRKLQSEDSTKSEEVDEEKKMVEEAKVASALEKWKTAIREAQTFSRMHVLLGMLDACIKWDMSAENARCKVCRKKGEDDKLILCDECNKAFHLFCLRPALYEVPDGEWQCPACQPPTARRNSRGRNYTEESTSEGSEGDESGEEEEEEEEEEEEEEDYEVAGLRLRPRKTIRGKQSVIPAARPGRPPGKKSHPARRSRPKDDPEVDDLVLQTKRISRRQSLELQKCEDILHKLVKYRFSWPFREPVTRDEAEDYYDVIEHPMDFQTIQNKCSCGNYRSVQEFLTDMKQVFANAELYNCRGSHVLSCMEKTEQCLLALLQKHLPGHPYVRRKRRKFPDRLADDEGDSDSESVGQSRGRRQKK
In assay [1], B1 displayed a fold decrease in binding vs wild-type nucleosome of 1.94 fold.

B2: cohesin complex protein SMC1A (natural protein)
chain: MGFLKLIEIENFKSYKGRQIIGPFQRFTAIIGPNGSGKSNLMDAISFVLGEKTSNLRVKTLRDLIHGAPVGKPAANRAFVSMVYSEEGAEDRTFARVIVGGSSEYKINNKVVQLHEYSEELEKLGILIKARNFLVFQGAVESIAMKNPKERTALFEEISRSGELAQEYDKRKKEMVKAEEDTQFNYHRKKNIAAERKEAKQEKEEADRYQRLKDEVVRAQVQLQLFKLYHNEVEIEKLNKELASKNKEIEKDKKRMDKVEDELKEKKKELGKMMREQQQIEKEIKEKDSELNQKRPQYIKAKENTSHKIKKLEAAKKSLQNAQKHYKKRKGDMDELEKEMLSVEKARQEFEERMEEESQSQGRDLTLEENQVKKYHRLKEEASKRAATLAQELEKFNRDQKADQDRLDLEERKKVETEAKIKQKLREIEENQKRIEKLEEYITTSKQSLEEQKKLEGELTEEVEMAKRRIDEINKELNQVMEQLGDARIDRQESSRQQRKAEIMESIKRLYPGSVYGRLIDLCQPTQKKYQIAVTKVLGKNMDAIIVDSEKTGRDCIQYIKEQRGEPETFLPLDYLEVKPTDEKLRELKGAKLVIDVIRYEPPHIKKALQYACGNALVCDNVEDARRIAFGGHQRHKTVALDGTLFQKSGVISGGASDLKAKARRWDEKAVDKLKEKKERLTEELKEQMKAKRKEAELRQVQSQAHGLQMRLKYSQSDLEQTKTRHLALNLQEKSKLESELANFGPRINDIKRIIQSREREMKDLKEKMNQVEDEVFEEFCREIGVRNIREFEEEKVKRQNEIAKKRLEFENQKTRLGIQLDFEKNQLKEDQDKVHMWEQTVKKDENEIEKLKKEEQRHMKIIDETMAQLQDLKNQHLAKKSEVNDKNHEMEEIRKKLGGANKEMTHLQKEVTAIETKLEQKRSDRHNLLQACKMQDIKLPLSKGTMDDISQEEGSSQGEESVSGSQRTSSIYAREALIEIDYGDLCEDLKDAQAEEEIKQEMNTLQQKLNEQQSVLQRIAAPNMKAMEKLESVRDKFQETSDEFEAARKRAKKAKQAFEQIKKERFDRFNACFESVATNIDEIYKALSRNSSAQAFLGPENPEEPYLDGINYNCVAPGKRFRPMDNLSGGEKTVAALALLFAIHSYKPAPFFVLDEIDAALDNTNIGKVANYIKEQSTCNFQAIVISLKEEFYTKAESLIGVYPEQGDCVISKVLTFDLTKYPDANPNPNEQ
As for B2, the fold decrease in binding vs wild-type nucleosome in assay [1] was 1.35 fold.

B3: RCC1 (regulator of chromatin condensation) (natural protein)
chain: MPPKRIAKRRSPPEDAIPKSKKVKVSHRSHNTEPGLVLTLGQGDVGQLGLGESVLERKKPALVPLLQDVVQAEAGGMHTVCLSQSGQVYSFGCNDEGALGRDTSVEGSEMVPGKVELQEKVVQVSAGDSHTAALTEDGRVFLWGSFRDNNGVIGLLEPMKKSMVPVQVQLDAPVVKVASGNDHLVMLTNDGDLYTLGCGEQGQLGRVPELFANRGGRQGLGRLLVPRCVLLKSRGTRGRVRFQDAFCGAYFTFAISREGHVYGFGLSNYHQLGTPGTGSCFIPQNLTSFKNSTKSWVGFSGGQHHTVCMDSEGKAYSLGRAEYGRLGLGEGAEEKSIPTLISRLPVVSSVACGASVGYAVSKDGRVFAWGMGTNYQLGTGQDEDAWSPVEMTGKQLENRVVLTVSSGGQHTVLLVKDQAQS
For the molecule B3, the fold decrease in binding vs wild-type nucleosome worked out at 22 fold in assay [1], 3.1 fold in assay [2] and 2.1 fold in assay [3].

B4: OGT O-GlcNAc transferase (enzyme)
chain: MASSVGNVADSTEPTKRMLSFQGLAELAHREYQAGDFEAAERHCMQLWRQEPDNTGVLLLLSSIHFQCRRLDRSAHFSTLAIKQNPLLAEAYSNLGNVYKERGQLQEAIEHYRHALRLKPDFIDGYINLAAALVAAGDMEGAVQAYVSALQYNPDLYCVRSDLGNLLKALGRLEEAKACYLKAIETQPNFAVAWSNLGCVFNAQGEIWLAIHHFEKAVTLDPNFLDAYINLGNVLKEARIFDRAVAAYLRALSLSPNHAVVHGNLACVYYEQGLIDLAIDTYRRAIELQPHFPDAYCNLANALKEKGSVAEAEDCYNTALRLCPTHADSLNNLANIKREQGNIEEAVRLYRKALEVFPEFAAAHSNLASVLQQQGKLQEALMHYKEAIRISPTFADAYSNMGNTLKEMQDVQGALQCYTRAIQINPAFADAHSNLASIHKDSGNIPEAIASYRTALKLKPDFPDAYCNLAHCLQIVCDWTDYDERMKKLVSIVAEQLEKNRLPSVHPHHSMLYPLSHGFRKAIAERHGNLCLDKINVLHKPPYEHPKDLKLSDGRLRVGYVSSDFGNHPTSHLMQSIPGMHNPDKFEVFCYALSPDDGTNFRVKVMAEANHFIDLSQIPCNGKAADRIHQDGIHILVNMNGYTKGARNELFALRPAPIQAMWLGYPGTSGALFMDYIITDQETSPAEVAEQYSEKLAYMPHTFFIGDHANMFPHLKKKAVIDFKSNGHIYDNRIVLNGIDLKAFLDSLPDVKIVKMKCPDGGDNPDSSNTALNMPVIPMNTIAEAVIEMINRGQIQITINGFSISNGLATTQINNKAATGEEVPRTIIVTTRSQYGLPEDAIVYCNFNQLYKIDPSTLQMWANILKRVPNSVLWLLRFPAVGEPNIQQYAQNMGLPQNRIIFSPVAPKEEHVRRGQLADVCLDTPLCNGHTTGMDVLWAGTPMVTMPGETLASRVAASQLTCLGCLELIAKSRQEYEDIAVKLGTDLEYLKKIRGKVWKQRISSPLFNTKQYTMELERLYLQMWEHYAAGNKPDHMIKPVEVTESA
With B4, the fold decrease in binding vs wild-type nucleosome in assay [1] came to 1.69 fold.

B5: VRK1 kinase (enzyme)
chain: MPRVKAAQAGRPGPAKRRLAEQFAAGEVLTDMSRKEWKLGLPIGQGGFGCIYLADTNSSKPVGSDAPCVVKVEPSDNGPLFTELKFYQRAAKPEQIQKWIRTHKLKYLGVPKYWGSGLHDKNGKSYRFMIMDRFGSDLQKIYEANAKRFSRKTVLQLSLRILDILEYIHEHEYVHGDIKASNLLLSHKNPDQVYLVDYGLAYRYCPDGVHKEYKEDPKRCHDGTLEFTSIDAHKGVAPSRRGDLEILGYCMIQWLSGCLPWEDNLKDPNYVRDSKIRYRDNVAALMEKCFPEKNKPGEIAKYMESVKLLEYTEKPLYQNLRDILLQGLKAIGSKDDGKLDFSAVENGSVKTRPASKKRKKEAEESAVCAVEDMECSDTQVQEAAQTRSVESQGAIHGSMSQPAAGCSSSDSSRRQQHLGLEQDMLRLDRRGSRTRKKAQK
B5 gave a fold decrease in binding vs wild-type nucleosome in assay [1] of 1.61 fold.
